The values that follow come from publication PMC9828230.

Test in all cases: SPR; Biacore X100; biotinylated histone 3 peptides immobilised on a Biotin CAPture chip (about 10 RU); PHD finger flowed at 10 μl/min, 0.39-400 μM; 300 mM NaCl, 10 mM Tris pH 8, 0.05% Tween 20, 0.1 mM TCEP; equilibrium binding isotherm model
Assay [1] addresses histone 3 peptide dimethylated at lysine 4 (H3K4me2).
In assay [2] the target is histone 3 peptide monomethylated at lysine 4 (H3K4me1).
Assay [3] deals with histone 3 peptide trimethylated at lysine 4 (H3K4me3).

pKd: −log10 of the molar value.

With “MtING1PHD, PHD finger of Medicago ING1 (M180-K247) (domain or fragment)”, the pKd is 4.26 in assay [1], 3.90 in assay [2] and 4.51 in assay [3].
